Test results published in patent publication US20160009800A1 (XOMA US, published 2016).
Values belong to the binder of their own block, whether it stands above or below them.

Experiments:
human insulin receptor [1] = target: T1, human insulin receptor (human, UniProt P06213 28-1382); assay: cell-based or functional assay
[2] = target: T2, human insulin receptor complexed with human insulin (human, UniProt P06213 28-1382; P01308 25-54; P01308 90-110); assay: KinExA antibody depletion by hINSR8-CHOK1 cells, with 175 nM insulin
T2 construct: whole, on cells;mature; also called hINSR-hINS complex; INS/INSR complex
Experimental: (§1) Beads were rotated at room temperature for 6 hours then allowed to settle. Supernatant was replaced with PBS with 50 mg/mL BSA Fraction V (Sigma-Aldrich, St. Louis, Mo.) and rotated overnight at 4° C. […] On the KinExA 3000 the sample was injected at 0.25 mL/minute for 240 seconds, then rinsed for 60 seconds in running buffer (PBS with 0.05% sodium azide), then 240 seconds of the detection solution was injected, followed by a final 90 second wash at 1 mL/minute. The difference in voltage from an early initial time-point and a time point near the end of the run was measured and used to calculate affinities. The INSR concentration on the cells was estimated at 2.5×10⁵ receptors/cell. Affinity was determined using the KinExA software (Sāpidyne, Boise Id.) and EC50's were calculated by non-linear fit in Prism (GraphPad Software, La Jolla Calif.).
(§2) Samples were incubated overnight at 4° C. for 18 hours then centrifuged to pellet cells and supernatants were removed for testing on the KinExA. […] Detection solution used was R-PE-(Fab′)2 fragment goat anti-Human IgG(H+L) (Jackson Immuno Research, West Grove Pa.).

human insulin receptor [3] = target: T1, human insulin receptor; assay: KinExA antibody depletion by hINSR8-CHOK1 cells, without insulin
Experimental: as §1, §2

human insulin receptor [4] = target: T1, human insulin receptor; assay: cell-based or functional assay; remark: listed apart in the source
mouse insulin receptor [5] = target: T3, mouse insulin receptor (mouse, UniProt P15208 28-1372); assay: cell-based or functional assay
human insulin receptor [6] = target: T1, human insulin receptor; assay: cell-based or functional assay; remark: listed apart in the source
mouse insulin receptor [7] = target: T3, mouse insulin receptor; assay: cell-based or functional assay; remark: listed apart in the source
[8] = target: T2, human insulin receptor complexed with …; assay: KinExA, affinity with insulin against affinity without insulin
Experimental: as §1, §2

[9] = target: T4, mouse insulin receptor complexed with human insulin (mouse; human, UniProt P15208 28-1372; P01308 25-54; P01308 90-110); assay: FACS, CHO-K1 mouse INSR cells, signal with insulin divided by signal without insulin [cont'd]
T4 construct: whole, on cells;mature; also called muINSR/hINS complex

[10] = target: T2, human insulin receptor complexed with …; assay: FACS, serum-starved CHO-K1 cells expressing human INSR, with insulin [cont'd]
Experimental: (§3) Twenty five microliter aliquots of cells were plated into 96 well plates, mixed with 25 ul of antibody or PPE and incubated on ice for 1 h.
(§4) The cells were then washed once with FACS buffer and the binding of the antibody was detected by the addition of 25 ul of an appropriate fluorochrome-conjugated secondary antibody. […] After a final 15 min incubation on ice the cells were washed and the pellets resuspended in FACS buffer. The cells were analyzed on a FACSCAN™ (Becton-Dickinson, Milipitas, Calif.) and the data analyzed in both FLOWJO™ (Treestar, Ashland, Oreg.) and Microsoft Excel™.

human insulin receptor [11] = target: T1, human insulin receptor; assay: FACS, serum-starved CHO-K1 cells expressing human INSR, no insulin [cont'd]
Experimental: as §3, §4

[12] = target: T2, human insulin receptor complexed with …; assay: FACS, CHO-K1 human INSR cells, signal with insulin divided by signal without insulin [cont'd]
Experimental: as §3, §4

rabbit insulin receptor [13] = target: T5, rabbit insulin receptor (rabbit, UniProt A0A5F9DAH8 25-1377); assay: FACS on monocytes of rabbit PBMC and on CHO cells expressing rabbit insulin receptor, without insulin
T5 construct: whole, on cells

[14] = target: T4, mouse insulin receptor complexed with …; assay: FACS, serum-starved CHO-K1 cells expressing mouse INSR, with insulin [cont'd]
Experimental: as §3, §4

mouse insulin receptor [15] = target: T3, mouse insulin receptor; assay: flow cytometry, biotinylated IgG on mINSR-CHOK1 cells
human insulin receptor [16] = target: T1, human insulin receptor; assay: cell-based or functional assay; remark: listed apart in the source
mouse insulin receptor [17] = target: T3, mouse insulin receptor; assay: FACS, serum-starved CHO-K1 cells expressing mouse INSR, no insulin [cont'd]
rabbit insulin receptor [18] = target: T5, rabbit insulin receptor; assay: FACS on monocytes of rabbit PBMC, without insulin
Text: Cynomolgus monkey whole blood was obtained from California National Primate Research Center (Davis, Calif.) and rabbit whole blood was obtained from LifeSource Biomedical, LLC (Moffett Field, Calif.). Human PBMC were purified using Ficoll Hypaque from buffy coats obtained from the American Red Cross. Cynomolgus and Rabbit PBMC were than purified using Ficoll Hypaque gradients (Pharmacia). Purified PBMC were frozen and stored in liquid nitrogen prior to use in the assay. Human, cynomolgus and rabbit PBMC were thawed and washed with FACS Buffer (0.5% BSA and 0.1% NaN3 in PBS). Once the cells were prepared, they were used in the FACS staining assay at a final concentration of 2×10⁶ cells/ml.
After washing twice with FACS buffer, cells were stained with various markers to capture monocytes population. Human and cynomolgus cells were stained with CD45 and CD14. Rabbit cells were stained with CD11b and CD14. Antibodies were than incubated for 20 minutes and washed twice with FACS Buffer. Cells were than fixed with 2% paraformaldehyde and equal volume of FACS Buffer was added prior to cell analysis. The cells were analyzed on a FACScan™ (Becton-Dickinson, Franklin Lakes, N.J.) and the data was analyzed using both FloJo™ (Tristar, Paso Robles, Calif.) and GraphPad Prism 5 (GraphPad Software, La Jolla, Calif.).

human insulin receptor [19] = target: T1, human insulin receptor; assay: FACS, serum-starved CHO-K1 cells expressing human INSR, no insulin
[20] = target: T4, mouse insulin receptor complexed with …; assay: FACS, serum-starved CHO-K1 cells expressing mouse INSR, with insulin
Experimental: as §3, §4

mouse insulin receptor [21] = target: T3, mouse insulin receptor; assay: FACS, serum-starved CHO-K1 cells expressing mouse INSR, no insulin
[22] = target: T4, mouse insulin receptor complexed with …; assay: FACS, CHO-K1 mouse INSR cells, signal with insulin divided by signal without insulin
Experimental: as §3, §4

[23] = target: T2, human insulin receptor complexed with …; assay: FACS, serum-starved CHO-K1 cells expressing human INSR, with insulin
Experimental: as §3, §4

human insulin receptor [24] = target: T1, human insulin receptor; assay: cell-based or functional assay; remark: listed apart in the source
mouse insulin receptor [25] = target: T3, mouse insulin receptor; assay: cell-based or functional assay; remark: listed apart in the source
[26] = target: T2, human insulin receptor complexed with …; assay: FACS, CHO-K1 human INSR cells, signal with insulin divided by signal without insulin
Experimental: as §3, §4

- pAKT assay, fold-decrease in insulin EC50 relative to isotype control Ab (human insulin receptor [1]): 9.7 fold
- Kd [2]: 0.116 nM
- Kd (human insulin receptor [3]): 12 nM
- positive modulation of insulin-dependent signaling, pAKT assay, CHOK1 human INSR (human insulin receptor [4]): ~10 fold
- positive modulation of insulin-dependent signaling, pAKT assay, CHOK1 mouse INSR (mouse insulin receptor [5]): ~10 fold
- fold-change in insulin EC50 (pAkt) relative to isotype control, 2 ug/ml Ab001, human INSR CHO-K1 cells (human insulin receptor [6]): 12 fold
- fold-change in insulin EC50 (pAkt) relative to isotype control, 2 ug/ml Ab001, mouse INSR CHO-K1 cells (mouse insulin receptor [7]): 7 fold
- Fold Improvement with Insulin [8]: 103 fold
B1: Ab001 (antibody, V domains shown)
VH: EVQLLESGGGLVQPGGSLRLSCAASGFTFSSYEMNWVRQAPGKGLEWVSSISSSSSYIYYADSVKGRFTISRDNSKNTLYLQMNSLRAEDTAVYYCARVRWYKDSDAFDIWGQGTLVTVSS
VL: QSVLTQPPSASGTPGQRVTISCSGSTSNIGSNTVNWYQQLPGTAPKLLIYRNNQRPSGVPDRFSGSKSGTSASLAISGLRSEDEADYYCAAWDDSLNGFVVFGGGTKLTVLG
notes: Positive modulator, Bin 1; also called XPA.015.138

- FACS area under log transformed data MFI ratio (+insulin/-insulin) [9]: 17.6
- pAKT assay, fold-decrease in insulin EC50 relative to isotype control Ab (human insulin receptor [1]): 3.3 fold
- Kd [2]: 0.34 nM
- FACS area under log transformed data MFI [10]: 704
- FACS area under log transformed data MFI (human insulin receptor [11]): 11
- FACS area under log transformed data MFI ratio (+insulin/-insulin) [12]: 66
- binding result (rabbit insulin receptor [13]): no binding
- fold-change in insulin EC50 (pAkt) relative to isotype control, 20 ug/ml Ab078, human INSR CHO-K1 cells (human insulin receptor [6]): 3 fold
- FACS area under log transformed data MFI [14]: 217
B2: Ab078 (antibody, IgG2, V domains shown)
VH: QVQLVQSGGGLVQPGGSLRLSCAASGFTFSSYSMNWVRQAPGKGLEWVSSISSSSSYIYYADSVKGRFTISRDNAKNSLYLQMNSLRAEDTAVYYCARDQGGELLGFTGYFDYWGQGTLVTVSS
VL: DIQLTQSPSSLSASVGDRVTITCRASQGISSALAWYQQKPGKAPKVLIYDASSLERGVPSRFSGSGTGTDFTLTISSLQPEDFASYYCHQFNSYPDTFGQGTRLEIK
notes: also called XPA.015.244

- binding result (mouse insulin receptor [15]): binds
B3: Ab086 (antibody, IgG2, V domains shown)
VH: EVQLVETGGGVVRPGGSLRLSCAASGFTFGDYGMSWVRQAPGKGLEWVSGINWNGGSTGYADSVKGRFTISRDNAKNSLYLQMNSLRAEDTALYYCARDILGVEFDYWGQGTLVTVSS
VL: QSALTQPASVSGSLGQSITISCTGTSSDIGLYKFVSWYQQHPGKAPKLMIYDVSYRPSGVSNRFSGSSSGNTASLTISGLQAEDEADYYCNSYTSSSTLVVFGGGTKLTVL
notes: also called XPA.015.219

- FACS area under log transformed data MFI ratio (+insulin/-insulin) [9]: 0.66
- fold change in insulin EC50 (pAKT) relative to isotype control mAb, 20 ug/mL Ab070 (human insulin receptor [16]): 17 fold
- FACS area under log transformed data MFI (mouse insulin receptor [17]): 587
- FACS area under log transformed data MFI (human insulin receptor [11]): 283
- FACS area under log transformed data MFI [14]: 389
B4: Ab070 (antibody, IgG2, V domains shown)
VH: EVQLVQSGAEVKKPGESLKISCKGSGYSFTSYWIGWVRQMPGKGLEWMGIIYPGDSDTRYSPSFQGQVTISADKSISTSYLQWSSLRASDTAMYYCARLGSGWYGNDYWGQGTLVTVSS
VL: SSELTQDPAVSVALGQTVRITCQGDSLRSYYTSWYQQKPGQAPVLVIFGKNNRPSGIPDRFSGSSSGNTASLTITGAQAEDEADYYCNSRDSSGNYAVFGGGTQLTVL
notes: Negative modulator; also called XPA.015.226

- binding result (mouse insulin receptor [15]): binds
B5: Ab004 (antibody, V domains shown)
VH: EVQLLESGGGLVQPGGSLRLSCAASGFTFRNFAMMWVRQAPGKGLEWVSGISWNSGSIGYADSVKGRFTISRDNSKNTLYLQMNSLRAEDTAVYYCARPSGAYPTPFDNWGQGTLVTVSS
VL: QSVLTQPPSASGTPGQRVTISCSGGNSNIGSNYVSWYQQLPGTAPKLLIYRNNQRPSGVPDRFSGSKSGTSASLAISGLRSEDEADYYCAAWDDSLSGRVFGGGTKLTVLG
notes: Sole member of Bin 7; also called XPA.015.066

- FACS area under log transformed data MFI ratio (+insulin/-insulin) [9]: 2.28
- Kd [2]: 6.4 nM
- binding result (rabbit insulin receptor [18]): no binding
- FACS area under log transformed data MFI (mouse insulin receptor [17]): 45
- FACS area under log transformed data MFI [10]: 268
- FACS area under log transformed data MFI (human insulin receptor [11]): 127
- FACS area under log transformed data MFI ratio (+insulin/-insulin) [12]: 2.12
- fold-change in insulin EC50 (pAkt) relative to isotype control, 10 ug/ml Ab077, human INSR CHO-K1 cells (human insulin receptor [6]): 9 fold
- fold-change in insulin EC50 (pAkt) relative to isotype control, 20 ug/ml Ab077, mouse INSR CHO-K1 cells (mouse insulin receptor [7]): 8 fold
- FACS area under log transformed data MFI [14]: 103
B6: Ab077 (antibody, IgG2, V domains shown)
VH: EVQLVESGGGVVQPGGSLRLSCAASGFTFSSYWMTWVRQAPGKGLEWVANINQDGSEKHYVDSVKGRFTISRDNAKNSLYLQMNSLRGEDTAVYYCARGRGAWAFDYWGQGTLVTVSS
VL: DIQMTQSPSSLSASVGDRVTITCRASQGISSWLAWYQQKPGKAPKLLIYAASSLQSGVPSRFSGSGSGTDFTLTISSLQPEDFATYYCQQANSFPITFGQGTRLEIK
notes: also called XPA.015.243

- FACS area under log transformed data MFI (human insulin receptor [19]): 204
- fold change in insulin EC50 (pAKT) relative to isotype control mAb, 10 ug/mL Ab061 (human insulin receptor [16]): 269 fold
- FACS area under log transformed data MFI [20]: 170
- FACS area under log transformed data MFI (mouse insulin receptor [21]): 462
- FACS area under log transformed data MFI ratio (+insulin/-insulin) [22]: 0.37
B7: Ab061 (antibody, IgG2, V domains shown)
VH: QMQLVQSGAEVKKTGESLKISCQGYGYRFTDNWIGWVRQMPGRGLEWMGIIYPGDSETRYSPSFQGQVTISADKSISTAYLEWSSLKASDTAMYYCARHAPLAVAGMALGDWGQGTLVTVSS
VL: QTVVTQEPSFSVSPGGTVTLTCGLSSGSVSTGYSPGWYQQTPGQAPRTLVYNTNTRSSGVPDRFSGSILGNKAALTITGAQADDESDYYCALYMGSGTYVFGGGTKLTVL
notes: Negative modulator; also called XPA.015.209

- FACS area under log transformed data MFI [23]: 790
- EC50 of pAkt activation without insulin, human INSR CHO-K1 cells (human insulin receptor [24]): 2.43 nM
- relative maximum pAkt activation without insulin, human INSR CHO-K1 cells (human insulin receptor [24]): 52%
- EC50 of pAkt activation without insulin, mouse INSR CHO-K1 cells (mouse insulin receptor [25]): 1.1 nM
- relative maximum pAkt activation without insulin, mouse INSR CHO-K1 cells (mouse insulin receptor [25]): 34%
- FACS area under log transformed data MFI (human insulin receptor [19]): 1400
- Kd [2]: 0.108 nM
- FACS area under log transformed data MFI [20]: 1010
- FACS area under log transformed data MFI (mouse insulin receptor [21]): 1450
- FACS area under log transformed data MFI ratio (+insulin/-insulin) [26]: 0.57
- Kd (human insulin receptor [3]): 0.124 nM
- fold rise of insulin EC50 (pAkt) in the presence of Ab062 (human insulin receptor [4]): 6.6 fold
- Fold Improvement with Insulin [8]: 1.1 fold
- FACS area under log transformed data MFI ratio (+insulin/-insulin) [22]: 0.7
B8: Ab062 (antibody, IgG2, V domains shown)
VH: QVQLQQWGAGLLKPSETLSLTCAVYGGSFSGYYWSWIRQPPGKGLEWIGEINHSGSTNYNPSLKSRVTISVDTSKNQFSLKLSSVTAADTAVYYCARGPSGWYIREFDYWGQGTLVTVSS
VL: QSVLTQPPSVSGAPGQRVTISCTGSSSNIGAGYDVHWYQQLPGTAPKLLIYGNSNRPSGVPDRFSGSKSGTSASLAITGLQAEDEADYYCQSYDSSLSGSGVFGGGTKVTVL
notes: also called XPA.015.211
